Values belong to the binder of their own block, whether it stands above or below them.
Legend:
[1] = target: T1, TIM-1 antigen, cell membrane-bound (on ACHN, CAKI-2, CAKI-1 renal cancer cells and polarized/activated human … (human, UniProt Q96D42 21-364)); experiment: FACS on ACHN cells, normalized to isotype control pK16
T1 construct: whole, on cells; Endogenous protein on cells; also called HAVcr-1; KIM-1
T1 sequence (looked up): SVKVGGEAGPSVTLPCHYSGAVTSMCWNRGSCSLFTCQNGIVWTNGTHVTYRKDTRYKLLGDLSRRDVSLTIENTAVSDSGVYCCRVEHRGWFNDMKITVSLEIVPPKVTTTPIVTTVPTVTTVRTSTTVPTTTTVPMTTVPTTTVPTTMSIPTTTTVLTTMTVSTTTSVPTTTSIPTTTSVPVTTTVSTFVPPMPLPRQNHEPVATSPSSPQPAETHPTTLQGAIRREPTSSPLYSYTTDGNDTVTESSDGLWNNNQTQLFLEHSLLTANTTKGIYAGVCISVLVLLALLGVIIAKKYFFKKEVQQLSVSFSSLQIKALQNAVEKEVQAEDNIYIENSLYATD

[2] = target: T1, TIM-1 antigen, cell membrane-bound (on …); experiment: FACS on polarized human CD4+ Th2 cells, 10 ug/mL mAb
[3] = target: T1, TIM-1 antigen, cell membrane-bound (on …); experiment: FACS on CAKI-2 cells, normalized to isotype control pK16
TIM-1 peptide E) PMPLPR = target: T2, TIM-1 peptide E) PMPLPR (human); experiment: peptide ELISA
T2 peptide: PMPLPR

[4] = target: T3, TIM-1 peptide D) PMPLPRQN (human); experiment: peptide ELISA
T3 peptide: PMPLPRQN

TIM-1 peptide I) HEPVAT = target: T4, TIM-1 peptide I) HEPVAT (human); experiment: peptide ELISA
T4 peptide: HEPVAT

[5] = target: T5, TIM-1 peptide H) QNHEPVAT (human); experiment: peptide ELISA
T5 peptide: QNHEPVAT

[6] = target: T6, TIM-1 peptide G) PRQNHEPVAT (human); experiment: peptide ELISA
T6 peptide: PRQNHEPVAT

[7] = target: T7, synthetic peptide PMPLARQNHE (SEQ ID NO:99); experiment: peptide ELISA, alanine scan
T7 peptide: PMPLARQNHE

[8] = target: T8, synthetic peptide PMPLPRQAHE (SEQ ID NO:102); experiment: peptide ELISA, alanine scan
T8 peptide: PMPLPRQAHE

Geo Mean Ratio (relative to negative control) [1]: 17.9 ratio
Geometric mean of fluorescence intensity [2]: 22.3
B1: anti-TIM-1 mAb 1.29 (antibody, human IgG2, V domains shown)
VH: QVQLQESGPGLVKPSETLSLTCTVSGGSVSSGGYYWSWIRQPPGKGLEWIGFIYYTGSTNYNPSLKSRVSISVDTSKNQFSLKLSSVTAADAAVYYCARDYDWSFHFDYWGQGTLVTVSS
VL: DIQMTQSPSSLSASIGDRVTITCRASQGIRNDLGWYQQKPGKAPKRLIYAASSLQSGVPSRFSGSGSGTEFTLTISSLQPEDFATYYCLQHNSYPLTFGGGTKVEIKR

Geo Mean Ratio (relative to negative control) [1]: 7.9 ratio
B2: anti-TIM-1 mAb 2.16 (antibody, V domains shown)
VH: EQSGGGVVKPGGSLRLSCAASGFTFSNAWMTWVRQAPGKGLEWVGRIKRRTDGGTTDYAAPVKGRFTISRDDSKNTLYLQMNNLKNEDTAVYYCTSVDNDVDYWGQGTLVTVSS
VL: not shown
notes: also called 2.16.1 (subclone)

Geo Mean Ratio (relative to negative control) [3]: 7.7 ratio
Geo Mean Ratio (relative to negative control) [1]: 15.2 ratio
Geometric mean of fluorescence intensity [2]: 22
B3: anti-TIM-1 mAb 2.59 (antibody, human IgG4, V domains shown)
VH: QSGPRLVKPSQTLSLTCTVSGGSISSDGYYWSWIRQHPGKGLEWIGYIYYSGSTFYNPSLKSRVAISVDTSKNQFSLKLSSVTAADTAVYYCARESPHSSNWYSGFDCWGQGTLVTVSS
VL: TQSPDFQSVTPKEKVTITCRASQSIGSRLHWYQQKPDQSPKLLIKYASQSFSGVPSRFSGSGSGTDFTLTINSLEAEDAATYYCHQSSNLPFTFGPGTKVDIKR
notes: Biotinylated for IHC

Geo Mean Ratio (relative to negative control) [3]: 8.8 ratio
Geo Mean Ratio (relative to negative control) [1]: 19.4 ratio
binding result (TIM-1 peptide E) PMPLPR): no binding
binding result [4]: no binding
binding result (TIM-1 peptide I) HEPVAT): no binding
binding result [5]: no binding
binding result [6]: no binding
binding result [7]: no binding
binding result [8]: no binding
Geometric mean of fluorescence intensity [2]: 27.8
B4: anti-TIM-1 mAb 2.70 (antibody, V domains shown)
VH: QVQLVESGGGVVQPGRSLRLSCAASGFIFSRYGMHWVRQAPGKGLKWVAVIWYDGSNKLYADSVKGRFTISRDNSKNTLYLQMNSLRAEDTAVYYCARDYYDNSRHHWGFDYWGQGTLVTVSS
VL: DIVMTQTPLSLPVTPGEPASISCRSSRSLLDSDDGNTYLDWYLQKPGQSPQLLIYTLSYRASGVPDRFSGSGSGTDFTLKISRVEAEDVGVYYCMQRVEFPITFGQGTRLEIKR
notes: Subclone 2.70.2 is treated as the same antibody because its printed variable regions are identical; also called 2.70.2 (subclone); TIM-1 2.70.2

From patent US20050084449A1 (CELLDEX THERAPEUTICS, published 2005)
